Target: endogenous calcineurin (human) (UniProt P63098)
Test: cell-based or functional assay

Sequence of endogenous calcineurin (human) (P63098 2-170): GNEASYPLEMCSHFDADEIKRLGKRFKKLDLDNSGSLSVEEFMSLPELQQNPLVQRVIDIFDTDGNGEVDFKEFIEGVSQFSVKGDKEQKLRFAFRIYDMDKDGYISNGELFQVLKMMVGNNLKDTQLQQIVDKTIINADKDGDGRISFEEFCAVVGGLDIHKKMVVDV
Sequence of FKBP12 (P62942 2-108 limits assumed): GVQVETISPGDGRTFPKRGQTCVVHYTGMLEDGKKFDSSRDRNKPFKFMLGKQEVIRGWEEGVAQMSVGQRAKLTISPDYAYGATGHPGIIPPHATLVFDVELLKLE

suppression of PMA/ionomycin-induced activation of an NFAT-SEAP reporter, C40-phenyl-FK506 against FK506: 30 fold
Substance: FKBP12 (from UniProt P62942 2-108)
